Experimental findings from article PMC5302818 are described below.

One assay addresses BIR1-CFP (Arabidopsis). The experiment in a line: cross number and brightness (Cross N&B) fluorescence fluctuation analysis; leaf disks of N. benthamiana transiently expressing AtRGS1-YFP with BIR1-CFP or BAK1-CFP; time series of 100 confocal images; SimFCS analysis.
Assay [1] deals with T1, BAK1-CFP (Arabidopsis), Q94F62.
T1 chain: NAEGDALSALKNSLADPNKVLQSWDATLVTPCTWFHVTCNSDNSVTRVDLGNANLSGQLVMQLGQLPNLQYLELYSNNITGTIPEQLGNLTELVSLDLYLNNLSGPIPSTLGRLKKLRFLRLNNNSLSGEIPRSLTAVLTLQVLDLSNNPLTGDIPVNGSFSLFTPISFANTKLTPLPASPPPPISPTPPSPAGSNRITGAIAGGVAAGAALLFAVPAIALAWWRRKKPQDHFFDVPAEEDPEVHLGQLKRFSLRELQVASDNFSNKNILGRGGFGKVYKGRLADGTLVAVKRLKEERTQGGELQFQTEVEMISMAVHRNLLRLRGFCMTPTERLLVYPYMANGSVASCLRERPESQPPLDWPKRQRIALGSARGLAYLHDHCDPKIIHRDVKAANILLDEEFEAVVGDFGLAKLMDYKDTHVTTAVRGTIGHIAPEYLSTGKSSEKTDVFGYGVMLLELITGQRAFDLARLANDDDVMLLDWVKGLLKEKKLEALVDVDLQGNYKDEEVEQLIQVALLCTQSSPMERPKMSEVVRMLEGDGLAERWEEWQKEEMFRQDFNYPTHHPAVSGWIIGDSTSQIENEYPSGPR
The description is as above. As to conditions: remark: other sources report otherwise.

B1: AtRGS1-YFP (natural protein)
chain: MASGCALHGGCPSDYVAVAISVICFFVLLSRSVLPCLIHKAPRTNSSSFWIPVIQVISSFNLLFSIMMSVNLLRFRTKHWWRYCYLWAVWIEGPLGFGLLMSCRITQAFQLYFIFVKKRLPPVKSYIFLPLVLLPWIFGAAIIHATKPLNDKCHMGLQWTFPVAGLHALYVLALIAFTRAVRHVEFRFDELRDLWKGILVSATSIVIWVTAFVLNEIHEEISWLQVASRFVLLVTGGILVVVFFSISSNQPLLSQISLKKRQNFEFQRMGQALGIPDSGLLFRKEEFRPVDPNEPLDKLLLNKRFRHSFMEFADSCYAGETLHFFEEVYEHGKIPEDDSIRRIYMARHIMEKFIVAGAEMELNLSHKTRQEILTTQDLTHTDLFKNALNEVMQLIKMNLVRDYWSSIYFIKFKEEESCHEAMHKEGYSFSSPRLSSVQGSDDPFYQEHMSKSSRCSSPG
B1 displayed a stoichiometry N with BIR1-CFP (Arabidopsis) of 1.

B2: AtRGS1-YFP, Q8H1F2 1-459 (natural protein)
chain: MASGCALHGGCPSDYVAVAISVICFFVLLSRSVLPCLIHKAPRTNSSSFWIPVIQVISSFNLLFSIMMSVNLLRFRTKHWWRYCYLWAVWIEGPLGFGLLMSCRITQAFQLYFIFVKKRLPPVKSYIFLPLVLLPWIFGAAIIHATKPLNDKCHMGLQWTFPVAGLHALYVLALIAFTRAVRHVEFRFDELRDLWKGILVSATSIVIWVTAFVLNEIHEEISWLQVASRFVLLVTGGILVVVFFSISSNQPLLSQISLKKRQNFEFQRMGQALGIPDSGLLFRKEEFRPVDPNEPLDKLLLNKRFRHSFMEFADSCYAGETLHFFEEVYEHGKIPEDDSIRRIYMARHIMEKFIVAGAEMELNLSHKTRQEILTTQDLTHTDLFKNALNEVMQLIKMNLVRDYWSSIYFIKFKEEESCHEAMHKEGYSFSSPRLSSVQGSDDPFYQEHMSKSSRCSSPG
Turning to B2, the stoichiometry N in assay [1] was found to be 1.
